Like-named read-outs stand apart in the source and are kept apart here. *1 amine or outer side, *2 acyl side, *3 side chain or, on linkers, in order; H or OH if unused. Bridges are numbered along the chain shown (N, C = ends). Where no end group is shown, it is not given here. [ ]: non-standard residue; d: D form. The star is where a group is joined. maleimide‑NOTA = 1,4,7-triazacyclononane-1,4-bis-acetic acid-7-maleimidoethylacetamide; Biotin = O=C1N[C@H]2[C@H](CS[C@H]2CCCCC(=O)*)N1; Lys(N3) = [N-]=[N+]=NCCCC[C@H](N)C(=O)O; βAsp = O=C(O)[C@H](CC(=O)[*:2])N[*:1]; hSer(lactone) = O=C1OCC[C@@H]1N*; Pra = C#CC[C@H](N)C(=O)O
Tests used:
[1] = biological target: T1, wild-type human integrin α5β1 (octyl β-D-glucopyranoside preparation) (human, UniProt P08648 42-1049; P05556 21-798); assay: competitive binding assay on α5β1-coated plates, isoDGR/STV-HRP probe
T1 construct: From Immunological Sciences; also called a5p1; asp1

[2] = biological target: T2, wild-type human integrin αvβ3 (octyl β-D-glucopyranoside preparation) (human, UniProt P06756 31-1048; P05106 27-788); assay: competitive binding assay on αvβ3-coated plates, isoDGR/STV-HRP probe
T2 construct: From Immunological Sciences

[3] = biological target: T3, wild-type human integrin αvβ5 (octyl β-D-glucopyranoside preparation) (human, UniProt P06756 31-1048; P18084 24-799); assay: competitive binding assay on αvβ5-coated plates, isoDGR/STV-HRP probe
T3 construct: From Immunological Sciences

[4] = biological target: T4, recombinant human αvβ6 extracellular domain (R&D Systems) (human, UniProt P06756 31-992; P18564 22-709); assay: competitive binding assay on αvβ6-coated plates, isoDGR/STV-HRP probe
T4 construct: extracellular domain; Bought; also called recombinant extracellular αvβ6; purified αvβ6

[5] = biological target: T5, αvβ8 integrin (purified, coated on microtiter plates) (UniProt P06756 31-992; P26012 43-684); assay: competitive binding assay on αvβ8-coated plates, isoDGR/STV-HRP probe
T5 construct: The Reagents section names no source for αvβ8; also called avs8

[6] = biological target: T4, recombinant human αvβ6 extracellular …; assay: STD NMR, 0.5 mM peptide with 4 µM αvβ6
bovine serum albumin = biological target: T6, bovine serum albumin (bovine, UniProt P02769 25-607); assay: 2D-STD-1H-15N-HSQC NMR, negative control
T6 construct: Negative control in the STD NMR experiments; also called BSA

[7] = biological target: T4, recombinant human αvβ6 extracellular …; assay: competitive αvβ6 binding assay, isoDGR-HRP probe
[8] = biological target: T5, αvβ8 integrin (purified, coated on …); assay: direct binding to integrin-coated plates, near-infrared fluorescence
[9] = biological target: T4, recombinant human αvβ6 extracellular …; assay: as above
[10] = biological target: T4, recombinant human αvβ6 extracellular …; assay: competitive binding assay on αvβ6-coated plates, isoDGR/STV-HRP probe; remark: listed apart in the source
[11] = biological target: T5, αvβ8 integrin (purified, coated on …); assay: direct binding to integrin-coated microtiter plates, one site specific binding fit
[12] = biological target: T1, wild-type human integrin α5β1 (octyl …); assay: as above
[13] = biological target: T3, wild-type human integrin αvβ5 (octyl …); assay: as above
[14] = biological target: T2, wild-type human integrin αvβ3 (octyl …); assay: as above
[15] = biological target: T4, recombinant human αvβ6 extracellular …; assay: as above

T1 sequence (P08648 42-1049, chain 1 of 2): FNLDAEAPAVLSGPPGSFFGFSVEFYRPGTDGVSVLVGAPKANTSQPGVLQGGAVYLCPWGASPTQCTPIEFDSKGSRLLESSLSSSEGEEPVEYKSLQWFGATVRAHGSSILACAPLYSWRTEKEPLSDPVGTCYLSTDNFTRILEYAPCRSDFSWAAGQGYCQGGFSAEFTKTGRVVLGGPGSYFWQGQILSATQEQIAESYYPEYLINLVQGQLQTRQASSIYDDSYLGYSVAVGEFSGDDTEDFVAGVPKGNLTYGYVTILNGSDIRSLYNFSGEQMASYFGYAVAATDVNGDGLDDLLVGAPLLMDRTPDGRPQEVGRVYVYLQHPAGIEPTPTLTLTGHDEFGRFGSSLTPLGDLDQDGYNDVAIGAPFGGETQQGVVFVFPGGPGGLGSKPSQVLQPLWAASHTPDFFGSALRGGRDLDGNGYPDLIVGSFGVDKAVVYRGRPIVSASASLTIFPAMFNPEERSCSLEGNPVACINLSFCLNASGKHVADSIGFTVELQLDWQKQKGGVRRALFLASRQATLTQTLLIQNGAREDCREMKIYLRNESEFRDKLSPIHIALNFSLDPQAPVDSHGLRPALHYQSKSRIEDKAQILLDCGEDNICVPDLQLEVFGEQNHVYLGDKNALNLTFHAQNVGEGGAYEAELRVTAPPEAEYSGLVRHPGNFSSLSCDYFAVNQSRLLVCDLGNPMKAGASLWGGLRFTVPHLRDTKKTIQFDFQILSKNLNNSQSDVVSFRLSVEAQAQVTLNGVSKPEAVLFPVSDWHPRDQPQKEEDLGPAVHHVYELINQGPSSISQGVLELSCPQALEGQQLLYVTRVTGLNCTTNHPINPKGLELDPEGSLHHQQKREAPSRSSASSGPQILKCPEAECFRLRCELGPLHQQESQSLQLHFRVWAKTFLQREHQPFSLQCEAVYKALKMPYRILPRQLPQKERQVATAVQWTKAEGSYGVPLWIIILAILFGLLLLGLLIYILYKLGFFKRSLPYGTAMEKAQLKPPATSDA
T1 sequence (P05556 21-798, chain 2 of 2): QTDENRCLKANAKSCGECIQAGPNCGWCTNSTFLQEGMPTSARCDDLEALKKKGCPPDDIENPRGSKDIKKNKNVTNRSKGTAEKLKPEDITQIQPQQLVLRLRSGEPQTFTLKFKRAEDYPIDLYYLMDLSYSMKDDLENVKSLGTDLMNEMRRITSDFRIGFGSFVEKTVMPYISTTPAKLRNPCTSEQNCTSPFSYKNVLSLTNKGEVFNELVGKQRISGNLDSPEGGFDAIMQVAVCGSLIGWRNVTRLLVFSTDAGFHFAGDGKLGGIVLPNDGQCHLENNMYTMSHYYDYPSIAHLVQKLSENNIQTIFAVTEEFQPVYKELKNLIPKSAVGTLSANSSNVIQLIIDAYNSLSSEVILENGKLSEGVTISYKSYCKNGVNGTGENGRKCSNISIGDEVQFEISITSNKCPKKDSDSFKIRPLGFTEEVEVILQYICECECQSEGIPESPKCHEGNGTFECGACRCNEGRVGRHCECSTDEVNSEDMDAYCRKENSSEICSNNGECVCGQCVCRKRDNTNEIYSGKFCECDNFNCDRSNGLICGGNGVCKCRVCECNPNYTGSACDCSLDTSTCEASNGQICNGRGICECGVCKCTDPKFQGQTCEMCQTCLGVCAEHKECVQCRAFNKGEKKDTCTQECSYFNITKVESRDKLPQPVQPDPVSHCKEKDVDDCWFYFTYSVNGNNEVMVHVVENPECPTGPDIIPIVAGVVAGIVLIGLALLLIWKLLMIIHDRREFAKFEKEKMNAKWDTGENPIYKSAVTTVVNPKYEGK
T4 sequence (P06756 31-992, chain 1 of 2): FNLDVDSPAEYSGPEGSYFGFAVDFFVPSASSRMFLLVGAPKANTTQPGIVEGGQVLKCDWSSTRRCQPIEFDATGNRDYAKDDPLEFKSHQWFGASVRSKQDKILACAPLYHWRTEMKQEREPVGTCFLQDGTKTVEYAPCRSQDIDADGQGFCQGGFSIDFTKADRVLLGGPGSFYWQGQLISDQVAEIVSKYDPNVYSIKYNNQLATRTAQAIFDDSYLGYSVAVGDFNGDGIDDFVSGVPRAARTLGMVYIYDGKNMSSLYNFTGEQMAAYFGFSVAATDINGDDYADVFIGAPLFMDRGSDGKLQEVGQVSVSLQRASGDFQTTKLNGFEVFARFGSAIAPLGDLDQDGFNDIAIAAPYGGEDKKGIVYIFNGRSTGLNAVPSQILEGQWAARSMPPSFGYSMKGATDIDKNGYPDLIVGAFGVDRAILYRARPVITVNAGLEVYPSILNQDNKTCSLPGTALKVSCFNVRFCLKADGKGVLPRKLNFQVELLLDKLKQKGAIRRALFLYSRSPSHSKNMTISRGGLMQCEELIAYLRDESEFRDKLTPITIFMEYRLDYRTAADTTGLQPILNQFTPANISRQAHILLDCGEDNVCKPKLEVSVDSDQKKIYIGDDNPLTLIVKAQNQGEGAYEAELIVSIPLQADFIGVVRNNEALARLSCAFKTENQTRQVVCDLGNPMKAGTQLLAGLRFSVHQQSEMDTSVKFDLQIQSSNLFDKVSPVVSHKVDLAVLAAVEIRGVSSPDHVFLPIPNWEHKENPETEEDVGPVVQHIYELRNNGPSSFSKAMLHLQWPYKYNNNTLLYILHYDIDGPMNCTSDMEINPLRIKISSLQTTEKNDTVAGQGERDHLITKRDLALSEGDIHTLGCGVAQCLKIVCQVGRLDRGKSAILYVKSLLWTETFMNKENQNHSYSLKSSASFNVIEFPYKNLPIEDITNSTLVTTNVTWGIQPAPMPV
T4 sequence (P18564 22-709, chain 2 of 2): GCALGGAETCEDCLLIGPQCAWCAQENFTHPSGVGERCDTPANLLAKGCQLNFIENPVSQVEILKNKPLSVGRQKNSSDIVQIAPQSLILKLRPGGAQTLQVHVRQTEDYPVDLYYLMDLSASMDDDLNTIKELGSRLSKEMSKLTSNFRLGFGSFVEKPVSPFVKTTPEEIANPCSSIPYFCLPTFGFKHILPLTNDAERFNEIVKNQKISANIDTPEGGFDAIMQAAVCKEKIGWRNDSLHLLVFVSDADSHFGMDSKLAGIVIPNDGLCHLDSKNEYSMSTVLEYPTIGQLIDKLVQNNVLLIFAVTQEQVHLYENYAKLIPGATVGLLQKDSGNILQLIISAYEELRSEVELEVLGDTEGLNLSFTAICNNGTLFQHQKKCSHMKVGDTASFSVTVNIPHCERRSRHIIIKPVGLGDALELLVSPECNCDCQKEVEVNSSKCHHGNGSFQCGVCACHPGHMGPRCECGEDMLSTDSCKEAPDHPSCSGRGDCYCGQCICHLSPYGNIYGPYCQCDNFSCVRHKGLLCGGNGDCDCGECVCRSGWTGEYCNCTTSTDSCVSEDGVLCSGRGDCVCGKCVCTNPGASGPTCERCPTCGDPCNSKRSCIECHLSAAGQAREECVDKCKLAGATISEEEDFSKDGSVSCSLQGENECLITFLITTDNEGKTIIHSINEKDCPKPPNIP
T5 sequence (P06756 31-992, chain 1 of 2): as the sequence (P06756 31-992, chain 1 of 2) above
T5 sequence (P26012 43-684, chain 2 of 2): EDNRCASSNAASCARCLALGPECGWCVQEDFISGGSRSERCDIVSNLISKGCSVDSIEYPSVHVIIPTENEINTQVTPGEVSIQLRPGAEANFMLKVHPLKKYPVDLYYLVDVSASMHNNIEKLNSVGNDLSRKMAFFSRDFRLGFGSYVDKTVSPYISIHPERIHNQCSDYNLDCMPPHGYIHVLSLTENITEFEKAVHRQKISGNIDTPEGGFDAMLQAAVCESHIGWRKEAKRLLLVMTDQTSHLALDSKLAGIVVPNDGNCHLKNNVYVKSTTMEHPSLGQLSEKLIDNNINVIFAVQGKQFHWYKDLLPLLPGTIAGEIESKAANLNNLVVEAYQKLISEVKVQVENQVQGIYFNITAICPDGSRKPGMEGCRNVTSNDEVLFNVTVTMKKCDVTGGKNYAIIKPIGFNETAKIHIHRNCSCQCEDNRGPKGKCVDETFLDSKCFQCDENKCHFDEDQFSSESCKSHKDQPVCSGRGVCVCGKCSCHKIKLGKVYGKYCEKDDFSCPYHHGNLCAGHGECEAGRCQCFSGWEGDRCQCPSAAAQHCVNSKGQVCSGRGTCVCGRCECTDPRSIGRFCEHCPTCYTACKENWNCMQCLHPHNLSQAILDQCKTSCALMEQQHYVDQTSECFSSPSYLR
T6 sequence (P02769 25-607 limits assumed): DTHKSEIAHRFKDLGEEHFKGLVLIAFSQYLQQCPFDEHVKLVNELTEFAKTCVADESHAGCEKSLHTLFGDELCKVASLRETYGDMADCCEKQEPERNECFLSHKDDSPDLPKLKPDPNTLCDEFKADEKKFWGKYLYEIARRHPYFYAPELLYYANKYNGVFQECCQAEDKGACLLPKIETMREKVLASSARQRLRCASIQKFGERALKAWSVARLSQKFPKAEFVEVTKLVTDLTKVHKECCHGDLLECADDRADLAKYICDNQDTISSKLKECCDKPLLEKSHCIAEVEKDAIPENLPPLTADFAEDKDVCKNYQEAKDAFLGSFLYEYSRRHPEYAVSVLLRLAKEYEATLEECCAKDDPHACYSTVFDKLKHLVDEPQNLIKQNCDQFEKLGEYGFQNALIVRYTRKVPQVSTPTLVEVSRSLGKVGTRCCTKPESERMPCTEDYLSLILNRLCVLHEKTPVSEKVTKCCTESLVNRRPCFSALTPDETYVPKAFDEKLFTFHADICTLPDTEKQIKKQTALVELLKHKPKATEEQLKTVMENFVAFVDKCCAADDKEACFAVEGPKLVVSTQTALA

B1: peptide 1 (CgA-derived peptide, residues 39-63), synthetic (peptide)
peptide: FETLRGDERILSILRHQNLLKELQD
notes: Synthetic peptide bought from Biomatik; no terminal modification is stated for it; also called compound 1
Ki [1]: 9.21 µM | Ki [2]: 2.19 µM | Ki [3]: 3.6 µM | Ki [4]: 0.0155 µM | Ki [5]: 7.66 µM

B2: recombinant 13C/15N peptide 1 (peptide)
peptide: FETLRGDERILSILRHQNLLKELQD-{hSer(lactone)}
modifications: also: 13C/15N isotope labelled
notes: Used in the 2D-STD NMR experiments; also called recombinant peptide 1; 15N labelled peptide 1
binding result [6]: binds | binding result (bovine serum albumin): no binding

C(maleimide‑NOTA)FETLRGEERILSILRHQNLLKELQD (Negative control conjugate) [NOTA-2a (peptide 2a coupled to maleimide-NOTA)]
binding result [7]: no binding

B3: peptide 3 (peptide)
peptide: FETLRGDERILSILR-NH2
notes: Made by Fmoc-SPPS on a Rink-amide resin; also called compound 3
Ki [1]: 10.1 µM | Ki [2]: 1.25 µM | Ki [3]: 2.04 µM | Ki [4]: 0.277 µM | Ki [5]: 31.2 µM

C(maleimide‑IRDye 800CW)FETLRGEERILSILRHQNLLKELQD (RGE control conjugate) [2a-IRDye (peptide 2a coupled via Cys to maleimide-IRDye 800CW)]
binding result [8]: no binding (tested: range 0.01-100 nM) | binding result [9]: no binding (tested: range 0.01-100 nM)

CFETLRGDLRILSILR[Pra]QNL[Lys(N3)]KELQD-NH2 (triazole 17-21, also called CgA38-63-derived peptide) [peptide 5a]
Ki [10]: 0.0015 µM

Ac-C[βAsp]GRCGVRSSSRTPSDK(Biotin)Y (also: in complex with streptavidin-peroxidase conjugate)
Kd [11]: 0.0016 µM | Kd [12]: 0.0013 µM | Kd [13]: 0.0017 µM | Kd [14]: 0.0013 µM | Kd [15]: 0.0014 µM

From patent publication US20220402980A1 (OSPEDALE SAN RAFFAELE S R L, published 2022)
